Like-named read-outs stand apart in the source and are kept apart here. Each block holds one molecule with its values, some of them ahead of it. Non-standard residues stand in square brackets, D forms with d. Residues, ends and D or L forms follow the SMILES beside them. No end group written: not given here.
Experiments:
Aβ42 = molecular target: T1, Aβ42 (Homo sapiens, UniProt P05067); assay: Thioflavin T (ThT) assay for Aβ fibrils; format: biochemical; settings: for % of control: Aβ alone = 100
T1 construct: Recombinant Aβ42, Ultrapure, was purchased from rPeptide, Bogart, Ga., USA; purchased rPeptide, Bogart, Ga., USA
Procedure: This method was the same as that published previously. Briefly, 60 μl samples of solutions containing Aβ42 (25 μM), ThT (15 μM) and between 0 and 125 μM RI-OR2 or RI-OR2-TAT, in 10 mM phosphate buffered saline (PBS), pH 7.4, were incubated in sealed, black, clear-bottomed 384-well plates (Corning). ThT fluorescence was monitored every 10 mins (λex=442 nm, λem=483 nm) for 48 h at 30° C. in a Biotek Synergy 2 plate reader.

Aβ42 fibrils = molecular target: T2, Aβ42 fibrils (Homo sapiens, UniProt P05067); assay: Surface plasmon resonance binding to immobilized Aβ42 fibrils
T2 construct: purchased rPeptide, Bogart, Ga., USA
From the text: SPR (Surface Plasmon Resonance) is a technique that can be used to measure the affinity of a substance for a substrate. The substrate (in this case Aβ fibrils) is bound to a solid surface and excited using a laser light source. The compound to be tested (e.g. PINPs) is allowed to flow over the bound substrate in suspension/solution and the emission spectra of the substrate will change if the compound binds. A second solution, without the test compound, can then added to elute any bound compound and the emission spectra may be observed to note loss of bound compound from the substrate. For a specific example regarding peptide binding to Aβ see reference (30).
In the examples presented here, The substance is introduced at a flow rate of 30 uL/min for 5 minute over the immobilized substrate. There is a spike in the signal which is due to the introduction of solvent without PINPs to show removal of the peptide bound to the Aβ fibrils. There are two plots related to addition of peptide at two different concentrations, 1 and 3 μM, plus a computer generated fitted curve for each one.
These experiments were conducted using a Sensi Q semi-automatic SPR machine (ICx Nomadics). This apparatus has two parallel flow cells; one was used to immobilize Aβ42 fibrils while the other was used as “reference” (empty surface). A COOH5 sensor chip (ICx Nomadics) was employed for this purpose and the peptide was immobilized by amine coupling chemistry. Briefly, after surface activation, the peptide preparation was diluted to 10 μM in acetate buffer (pH 4.0) and then injected for 5 min at a flow rate of 30 μL/min. Any remaining activated groups were blocked with ethanolamine (pH 8.0). The final immobilization level was ˜5,000 resonance units (1 RU=1 pg of protein/mm^2). The empty “reference” surface was prepared in parallel using the same immobilization procedure, but without addition of the peptide. Sensorgrams were then obtained via injection of three different concentrations of RI-OR2-TAT (1, 3 and 6 μM), as well as the vehicle (PBS with 0.005% Tween 20), over the immobilized ligand or control surface, in parallel.
These experiments were conducted using a Sensi Q semi-automatic SPR machine (ICx Nomadics). This apparatus has two parallel flow cells; one was used to immobilize Aβ(1-42) fibrils (see Aβ peptides) while the other was used as “reference” (empty surface). A COOH5 sensor chip (ICx Nomadics) was employed for this purpose and the peptide was immobilized by amine coupling chemistry. Briefly, after surface activation, the peptide preparations was diluted to 10 μM in acetate buffer (pH 4.0) and then injected for 5 min at a flow rate of 30 μL/min. Any remaining activated groups were blocked with ethanolamine (pH 8.0). The final immobilization level was 5000 resonance units (1 RU=1 pg of protein/mm^2). The empty “reference” surface was prepared in parallel using the same immobilization procedure, but without addition of the peptide. Sensorgrams were then obtained via injection of two different concentrations of RI-OR2 TAT/peptide liposome (1 and 3 μM), as well as the vehicle (PBS with 0.005% Tween 20), over the immobilized ligand or control surface, in parallel, at the same time.

[1] = test system: SHSY-5Y neuroblastoma cells; assay: LDH assay, protection against Aβ42-mediated toxicity; format: cell-based; settings: 5 μM Aβ42 plus 0.1-10 μM peptide, 24 h
Procedure: For cell toxicity assays (Example 3), SHSY-5Y neuroblastoma cells were maintained in 10% Fetal Calf Serum supplemented Dulbecco's Modified Eagle Medium (DMEM, Gibco) under standard mammalian cell culture conditions. The cells were transferred to sterile 96-well growth plates at 20,000 cells/well and 4 wells per condition. To test for any toxic effects of RI-OR2-TAT alone on the cells, they were left to adhere for 24 h before the addition of the inhibitor (at 12.5, 25, 50, 100 and 200 μM), in DMEM. To look at the ability of RI-OR2-TAT to protect against Aβ toxicity, the cell growth medium was changed to Optimem (Invitrogen) and Aβ42, pre-aggregated (at 100 μM) for 24 h at 25° C. in PBS, was added to the cells at a concentration of 5 μM, together with various amounts (0, 0.1, 0.5, 1, 5 or 10 μM) of RI-OR2-TAT. In each case, after a further 24 h incubation period, the viability of the cells was assessed using a CytoTox 96® Non-Radioactive Cytotoxicity Assay (LDH) Assay (Promega) kit.

[2] = read-out: Kd, binding to Aβ fibrils

T1 sequence (P05067 672-713 limits assumed): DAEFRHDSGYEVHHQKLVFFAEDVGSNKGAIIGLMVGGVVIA
T2 sequence (P05067 672-713 limits assumed): as above

- ThT fluorescence (Aβ42; 48 h incubation of Aβ42, molar ratios 1:1, 1:2, 1:4 and 1:10 (inhibitor:Aβ42)): lower fluorescence
- increase in affinity of binding to Aβ fibrils compared to RI-OR2 (Aβ42 fibrils): approximately 1000 fold
- koff (Aβ42 fibrils; Example 2, 1, 3 and 6 μM): 0.00037 ± 1.5e-08 s⁻¹
- kon (Aβ42 fibrils; Example 2, 1, 3 and 6 μM): 3680 ± 615 M⁻¹ s⁻¹
- Kd (Aβ42 fibrils; Example 2, Langmuir 1:1 interaction model, read-out: calculated apparent affinity value (Kd)): 0.058 to 0.125 µM
- binding affinity for Aβ42 fibrils relative to RI-OR2 (Aβ42 fibrils; Example 2, versus Kd=9.5 μM): ~100 fold
- binding affinity relative to peptide without TAT (Aβ42 fibrils; Example 7): approximately 1000 times
- Kd (Aβ42 fibrils; Example 7, 1 and 3 μM, read-out: Kd, binding to Aβ fibrils): 0.015 to 0.075 µM
- Kd (Aβ42 fibrils; [2]): 0.041 to 0.075 µM
Molecule: CC(=O)N[C@H](CCCNC(=N)N)C(=O)NCC(=O)N[C@H](Cc1ccccc1)C(=O)N[C@H](Cc1ccccc1)C(=O)N[C@@H](C(=O)N[C@H](CC(C)C)C(=O)N[C@H](CCCCN)C(=O)NCC(=O)N[C@H](CCCNC(=N)N)C(=O)N[C@H](CCCNC(=N)N)C(=O)N[C@H](CCCNC(=N)N)C(=O)N[C@H](CCCNC(=N)N)C(=O)N[C@H](CCC(N)=O)C(=O)N[C@H](CCCNC(=N)N)C(=O)N[C@H](CCCNC(=N)N)C(=O)N[C@H](CCCCN)C(=O)N[C@H](CCCCN)C(=O)N[C@H](CCCNC(=N)N)C(=O)NCC(=O)N[C@H](Cc1ccc(O)cc1)C(N)=O)C(C)C [RI-OR2-TAT, Ac-rGffvlkGrrrrqrrkkrGy-NH2] (Ac-[dR]G[dF][dF][dV][dL][dK]G[dR][dR][dR][dR][dQ][dR][dR][dK][dK][dR]G[dY]-NH2)
- effect on Aβ42 toxicity to cells [1]: inhibits the toxic effects of Aβ42

Molecule: PINPs: RI-OR2-TAT covalently attached to nanoliposomes (cholesterol:sphingomyelin [1:1] with 2.5% maleimide) via an additional cysteine (Ac-[dR]G[dF][dF][dV][dL][dK]G[dR][dR][dR][dR][dQ][dR][dR][dK][dK][dR]G[dY][dC]; not fully specified (residue 21); also: C-terminal D-Cys coupled via its thiol to maleimide lipid of nanoliposome)
- reduction in aggregate formation (Aβ42; 1:50 molar ratio of PINPS:Aβ, 48 hours, Aβ1-42 25 μM): ~50%
- ThT signal by 48 hours (Aβ42; 1:500 molar ratio of PINPs (total lipids):Aβ): below that of Aβ1-42 alone
- RFU at 48 hours (Aβ42; 1 to 1 PINPS (total lipids):Aβ, Aβ1-42 25 μM): 13817 RFU
- % of control (Aβ42; 1 to 1 PINPS:Aβ, 48 hours): 7.1%
- RFU at 48 hours (Aβ42; 1 to 5 PINPS (total lipids):Aβ, Aβ1-42 25 μM): 14450 RFU
- % of control (Aβ42; 1 to 5 PINPS:Aβ, 48 hours): 7.4%
- RFU at 48 hours (Aβ42; 1 to 10 PINPS (total lipids):Aβ, Aβ1-42 25 μM): 15664 RFU
- % of control (Aβ42; 1 to 10 PINPS:Aβ, 48 hours): 8.1%
- RFU at 48 hours (Aβ42; 1 to 50 PINPS (total lipids):Aβ, Aβ1-42 25 μM): 85107 RFU
- % of control (Aβ42; 1 to 50 PINPS:Aβ, 48 hours): 44.0%
- RFU at 48 hours (Aβ42; 1 to 100 PINPS (total lipids):Aβ, Aβ1-42 25 μM): 132977 RFU
- % of control (Aβ42; 1 to 100 PINPS:Aβ, 48 hours): 68.8%
- RFU at 48 hours (Aβ42; 1 to 500 PINPS (total lipids):Aβ, Aβ1-42 25 μM): 165060 RFU
- % of control (Aβ42; 1 to 500 PINPS:Aβ, 48 hours): 85.5%
- RFU at 48 hours (Aβ42; 1 to 1000 PINPS (total lipids):Aβ, Aβ1-42 25 μM): 171555 RFU
- % of control (Aβ42; 1 to 1000 PINPS:Aβ, 48 hours): 88.8%
- RFU at 48 hours (Aβ42; 1 to 5000 PINPS (total lipids):Aβ, Aβ1-42 25 μM): 148012 RFU
- % of control (Aβ42; 1 to 5000 PINPS:Aβ, 48 hours): 76.6%
- RFU at 48 hours (Aβ42; 1 to 10000 PINPS (total lipids):Aβ, Aβ1-42 25 μM): 204059 RFU
- % of control (Aβ42; 1 to 10000 PINPS:Aβ, 48 hours): 105%
- RFU at 48 hours (Aβ42; 1 to 50000 PINPS (total lipids):Aβ, Aβ1-42 25 μM): 199514 RFU
- % of control (Aβ42; 1 to 50000 PINPS:Aβ, 48 hours): 103%
- RFU at 48 hours (Aβ42; 1 to 100000 PINPS (total lipids):Aβ, Aβ1-42 25 μM): 188616 RFU
- % of control (Aβ42; 1 to 100000 PINPS:Aβ, 48 hours): 97.0%
- Kd (Aβ42 fibrils; [2]): 0.014 to 0.044 µM

— US9579358B2, “Compositions for binding to amyloid proteins” (LANCASTER UNIVERSITY BUSINESS ENTERPRISES LIMITED, priority 2011, dated 2017)
